Source: patent publication US20240117334A1, “FACTOR B PROTEASES” (Vertex Pharmaceuticals Incorporated, priority 2021, published 2024)
Substitutions are numbered along the chain they refer to. Numbers in names are those of the source. Where “and” joins values, the source holds several entries; their conditions need not be identical. Identical values can stand only once. Like-named read-outs stand apart in the source and are kept apart here. Values belong to the molecule of their own block, whether it stands above or below them.

Assays:
[1] = Baseline stability in indirect and MTSP buffer (+/-EDTA) and PBS at 37° C., peptide substrate EGVDAE-QF; format: physicochemical; conditions: indirect buffer pH 7.4, MTSP buffer
Procedure: Further, various chymase-based engineered proteases were tested to evaluate their baseline stability, by testing the effects of indirect and MTSP buffer (+/−EDTA) on the chymase-based engineered proteases. The peptide substrate EGVDAE-QF (SEQ ID NO: 52) was used for these experiments.
FIGS. 4A-4E depict graphs showing the stability of five different chymase proteases tested using a peptide substrate, in PBS, at 37° C.

[2] = tested on: serpins; assay: Serpin inhibition tests of chymase-based engineered proteases; format: biochemical
Procedure: Inhibition tests were carried out using chymase-based engineered proteases. Various serpins, which are capable of inhibiting protease activity, were used to test whether these could be used for adequate inhibition of the tested chymase-based engineered proteases, to enable selection of an engineered protease resistant to inhibition in plasma. All references in this Example to engineered proteases are depicted in chymotrypsin numbering. The chymotrypsin numbering key for the modified protease domains of engineered proteases are found in Tables 2, 4, and 6 for uPA, MTSP-1, and chymase, respectively.

[3] = biological target: T1, Human Factor B (Homo sapiens, UniProt P00751); assay: Human Factor B cleavage EC50 in 80% human plasma (Table 10A); format: biochemical; conditions: chymase-based; 64% plasma; read-out: fB Cleavage, 64% plasma EC50
[4] = biological target: T1, Human Factor B; assay: as above; format: biochemical
Procedure: Cleavage of Factor B by various engineered proteases was evaluated. Engineered chymase-, MTSP-1-, and uPA-based proteases were tested. All references in this Example, including Tables 10A, 10B, 11A, and 11B, to engineered proteases are depicted in chymotrypsin numbering. The chymotrypsin numbering key for the modified protease domains of engineered proteases are found in Tables 2, 4, and 6 for uPA, MTSP-1, and chymase, respectively. These experiments were also performed to evaluate the stability of non-naturally occurring chymases in various media, including cynomolgus monkey vitreous humor, human plasma, and phosphate buffered saline (PBS). Briefly, Factor B was diluted into an assay buffer and incubated at 37° C. with naturally occurring (wild type) and non-naturally occurring (engineered) proteases in vitreous humor, plasma, or PBS, and the reactions were quenched with HCl at various time points. The time points tested for chymase include T=0 which used 6 hours pre-incubation, T=2 hours which used 4 hours pre-incubation, T=4 hours which used 2 hours pre-incubation, and T=6 hours which used 0 hours pre-incubation. Assaying of the sample was performed with ELISA, or alpha screen for human C3 cleavage, using standard protocols.
A summary of the results is presented in Tables 10A-10B below, showing the various tested proteases, the concentration of the protease used in nM and the EC50 of human Factor B cleavage. Table 10 presents human Factor B cleavage by various non-naturally occurring chymase-based engineered proteases, tested in 80% human plasma, compared against a chymase comprising the mutation string […]. Blank cells indicate that a test was not performed for a particular protease mutation string.

[5] = Half-life in 50% human plasma of chymase-based engineered proteases; format: in vitro ADME; conditions: EGVD′AE substrate
Procedure: Table 10B presents human Factor B cleavage by various engineered chymase-, MTSP-1-, or uPA-based proteases, tested in mouse or human plasma. For ELISA analysis of Factor B cleavage, briefly, anti-Ba was used, and Bb was detected with anti-Bb. A dynamic range of 25-1600 pM was used. Half-life in 50% human plasma was also calculated for various chymase-based engineered proteases.

[6] = tested on: EGVD/AE-ACT (SEQ ID NO: 53); assay: Second order rate constant k*app with EGVD/AE-ACT serpin bait; format: biochemical
Procedure: Selected chymase-based engineered proteases were tested to measure the activity of these proteases, by using an active site titration method based on reaction with the inhibitory serpin bait, followed by HPLC analysis to quantitate the active fraction. All references in this Example, including Table 9, to engineered proteases are depicted in chymotrypsin numbering. See Table 6 for the chymotrypsin numbering key for the modified protease domain of chymase. The HPLC analysis detects a shift in the measured peak when the serpin bait is present, an indication that the protease is binding the bait and therefore active. Briefly, a working concentration of 24 μM of serpin bait was prepared from stock solution, with 50 μM of low molecular weight heparin for antithrombin (AT)-based baits. Protease solutions were prepared by using 30 μL of a 5 μM working solution. Reaction mixtures were incubated for 2 hours at 37° C., and each reaction mixture (protease alone or protease with bait) was analyzed by HPLC using standard protocols. All protease alone samples were run first, then followed by the protease with serpin bait samples. A summary of the results for the proteases tested is summarized in Table 9 below. kcat/Km was measured using EGVD/AE-QF (SEQ ID NO: 52) and second order rate constant K*app was measured using EGVD/AE-ACT (SEQ ID NO: 53).

[7] = Second order rate constant (k*) for inhibition by plasma, extrapolation of half-life in 100% plasma; format: in vitro ADME
Procedure: Briefly, a baseline chymase having the modifications C22S/A226R was used. The concentration of the baseline chymase and the tested chymase-based engineered proteases, listed in Table 11B below, were used at 50 nM, and another tested chymase C22S/L99R/F173Y/K192R/S218L/A226R was used at 25 nM. For the baseline chymase, a time course of protease activity in the presence of plasma was measured using 4.2 uM CPQ2-ITLLSA-K(5FAM)-K-PEG8-K(biotin)-NH2 (SEQ ID NO: 17)/21 uM Neutravidin at 37° C.

[8] = tested on: Factor B depleted human serum spiked with human Factor B, rabbit or chicken RBCs; assay: Factor B add-back hemolysis assay; format: biochemical; conditions: MTSP-1 scaffold, read-out: Hu fB Add-Back EC50
Procedure: Hemolysis assays were performed to evaluate the hemolytic activity of various lots of Factor B, a lot obtained from CompTech as compared to a lot expressed in-house. Briefly, Factor B depleted human serum was used, and plasma purified or recombinant human Factor B was used for the add-back. Rabbit red blood cells (RBCs) or chicken RBCs were washed in GVB/Mg/EGTA, and the depleted serum was spiked with Factor B. The RBC lysis was then monitored with CVF/FD/human Factor B convertase. These were analyzed to create standard curves from which the Factor B lots were compared. FIGS. 5-6 depict a bar graph of controls used for the hemolysis assay and the standard curves measured from the tested engineered proteases from the Factor B add-back hemolysis assay, respectively. […] This engineered protease was tested at two concentrations (samples 1 and 2). All references in this Example to engineered proteases are depicted in chymotrypsin numbering. The chymotrypsin numbering key for the modified protease domains of engineered proteases are found in Tables 2, 4, and 6 for uPA, MTSP-1, and chymase, respectively.

[9] = Plasma Inhibitor: alpha-2-marcroglobin (A2M)

T1 sequence (P00751 26-764): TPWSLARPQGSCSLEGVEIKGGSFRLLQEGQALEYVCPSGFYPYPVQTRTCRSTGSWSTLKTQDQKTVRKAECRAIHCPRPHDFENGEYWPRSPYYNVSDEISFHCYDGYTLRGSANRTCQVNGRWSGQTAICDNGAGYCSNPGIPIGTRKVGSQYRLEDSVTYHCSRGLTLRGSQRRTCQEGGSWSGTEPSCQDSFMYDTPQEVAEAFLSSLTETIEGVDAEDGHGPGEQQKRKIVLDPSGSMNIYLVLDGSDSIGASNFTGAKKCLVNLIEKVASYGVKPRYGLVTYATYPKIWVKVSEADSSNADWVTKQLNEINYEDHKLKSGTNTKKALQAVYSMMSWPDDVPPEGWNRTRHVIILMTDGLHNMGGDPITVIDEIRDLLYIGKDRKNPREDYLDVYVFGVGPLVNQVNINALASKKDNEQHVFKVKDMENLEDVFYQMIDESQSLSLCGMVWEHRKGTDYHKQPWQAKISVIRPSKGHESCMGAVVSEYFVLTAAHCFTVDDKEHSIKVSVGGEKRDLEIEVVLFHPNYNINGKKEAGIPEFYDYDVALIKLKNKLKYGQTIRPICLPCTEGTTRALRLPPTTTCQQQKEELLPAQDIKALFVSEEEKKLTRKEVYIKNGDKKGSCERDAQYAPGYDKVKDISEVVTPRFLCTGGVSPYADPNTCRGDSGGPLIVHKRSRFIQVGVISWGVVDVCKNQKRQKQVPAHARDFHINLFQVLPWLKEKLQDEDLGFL

B1: Wild type or naturally occurring chymase: wild type human mast cell chymase protease domain (SEQ ID NO: 6) (protein, listed as Homo sapiens)
chain: IIGGTECKPHSRPYMAYLEIVTSNGPSKFCGGFLIRRNFVLTAAHCAGRSITVTLGAHNITEEEDTWQKLEVIKQFRHPKYNTSTLHHDIMLLKLKEKASLTLAVGTLPFPSQFNFVPPGRMCRVAGWGRTGVLKPGSDTLQEVKLRLMDPQACSHFRDFDHNLQLCVGNPRKTKSAFKGDSGGPLLCAGVAQGIVSYGRSDAKPPAVFTRISHYRPWINQILQAN
- stability (remaining activity) in buffers, peptide substrate [1]: loss of activity in all buffers

- kapp ([2]; Plasma Inhibitor: ACT): 428 M⁻¹ s⁻¹
- kapp [2, 9]: 645 M⁻¹ s⁻¹
- EC50 [3]: 6000 nM and 5620 nM
- EC50 ([4]; Table 20, cleavage activity as of Table 10, unit inferred, read-out: EC50 Fb Cleavage): 170 nM
- EC50 ([4]; chymase-based engineered proteases, no plasma stated, read-out: fB Cleavage EC50): 151 to 182 nM and 177 nM
B2: C22S/F173Y/D175N/A226R: chymase-based engineered protease (protein, listed as Homo sapiens)
chain: B1 chain with C7S, F157Y, D159N, A207R
- t1/2 in 50% human plasma (min) (EGVD′AE)(SEQ ID NO: 13) [5]: 7.3 min and 9.0 min

- kapp ([2]; Plasma Inhibitor: plasma antichymotrypsin (plasma ACT)): 31166 M⁻¹ s⁻¹
B3: C22S: chymase-based engineered protease, chymotrypsin numbering (protein, listed as Homo sapiens)
chain: B1 chain with C7S
- k*app EGVD/AE-ACT (SEQ ID NO: 53) [6]: 30.2

- kapp ([2]; Plasma Inhibitor: ACT): 1045 M⁻¹ s⁻¹
- kapp [2, 9]: 812 M⁻¹ s⁻¹
- fB Cleavage, 80% plasma EC50 (nM) ([4]; chymase-based, 80% human plasma): none
B4: C22S/A226R: chymase-based engineered protease, baseline chymase (protein, listed as Homo sapiens)
chain: B1 chain with C7S, A207R
- calculated t1/2 (in 100% plasma) ([7]; extrapolated from k*): 1.58 min
- k* ([7]; inhibition by plasma, 37° C.): 7.32E−5 %^−1s^−1
- k*app EGVD/AE-ACT (SEQ ID NO: 53) [6]: 77

B5: F41V/L99H/G151V/F173Y/Y215K/R217G/A226R: chymase-based engineered protease (protein, listed as Homo sapiens)
chain: B1 chain with F29V, L86H, G137V, F157Y, Y198K, R200G, A207R
- k*app EGVD/AE-ACT (SEQ ID NO: 53) [6]: 649

B6: MTSP-1 (protein, listed as Homo sapiens)
chain: VVGGTDADEGEWPWQVSLHALGQGHICGASLISPNWLVSAAHCYIDDRGFRYSDPTQWTAFLGLHDQSQRSAPGVQERRLKRIISHPFFNDFTFDYDIALLELEKPAEYSSMVRPICLPDASHVFPAGKAIWVTGWGHTQYGGTGALILQKGEIRVINQTTCENLLPQQITPRMMCVGFLSGGVDSCQGDSGGPLSSVEADGRIFQAGVVSWGDGCAQRNKPGVYTRLPLFRDWIKENTGV
- EC50 ([8]; [Protease]high 400 nM): 32.2 nM
- EC50 ([8]; [Protease]high 4000 nM): 37.3 nM
